Reference: the nanobody polyreactivity screen of Harvey et al. (2022)

experiment: yeast display, Sf9 membrane polyspecificity reagent, FACS + sequencing; frameworks hold sequencing errors
Procedure, shortened: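 A nanobody's polyreactivity label depends on the gate it was sorted from. Yeast display cells were stained with 10% biotinylated, detergent-solubilized Sf9 membrane reagent for 1 hour at 4 °C, enriched on streptavidin microbeads and sorted by FACS. The low and high (top ~1%) gates were set on anti-HA fluorescence for expression and streptavidin fluorescence for reagent binding.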

Row | Sequence | polyreactivity (PSR sort gate)
1 | QVQLVESGGGLVQAGGSLRLSCAASGFIFKPYAMGWYRQAPGKERELVAAITYSGSSTYYADSVKGRFTISRDNAKNTVYLQMNSLKPEDTAVYYCAARDWSHPRRLFYWGQGTQVTVSS | high polyreactivity
2 | QVQLVESGGGLVQAGGSLRLSCAASGFIFKPYDMGWYRQARGKERELVAAISWTGTSTYYADSVKGRFTISRDNAKNTVYLQMNSLKPEDTAVYYCAADFYGGFAHEYWGQGTQVTVSS | low polyreactivity
3 | QVQLVESGGGLVQAGGSLRLSCAASGFIFKRYTMGWYRQAPGKERELVAAISKSGSSTYYADSVKGRFTISRDNAKNTVYLQMHSLKPEDTAVYYCAAGWGWSSFGYGYWGQGTQVTVSS | high polyreactivity
4 | QVQLVESGGGLVQAGGSLRLSCAASGFIFKTYAMGWYRQAPGKERELVARISKSSGNTYYADSVKGRFTISRDNAKNTVYLQMNSLKPEDTAVYYCNRRHTSKNAYTSPSEYDYWGQGTQVTVSS | low polyreactivity
5 | QVQLVESGGGLVQAGGSLRLSCAASGFIFKYNAMGWYRQAPGKERELVAAISRSGGRTYYADSVKGRFTISRDNAKNTVSLQMNSLKPEDTAVYYCAARVGVSGFEYDYWGQGTQVTVSS | high polyreactivity
6 | QVQLVESGGGLVQAGGSLRLSCAASGFIFLAYAMGWYRQAPGKERELVAAISRSGGRTYYADSVKGRFTISRDNAKNTVYLQMNSLKPEDTAVYYCAPLANGTNGFYYWGQGTQVTVSS | high polyreactivity
7 | QVQLVESGGGLVQAGGSLRLSCAASGFIFLAYAMGWYRQAPGKERELVAAISSGSSTSYADSVKGRFTISRDNAKNTVYLQMNSLKPEDTAVYYCNAVPSFANLTWESYDYWGQGTQVTVSS | low polyreactivity
8 | QVQLVESGGGLVQAGGSLRLSCAASGFIFLDYAMGWYRQAPGKERELVAAISSRGARTYYADSVKGRFTISRDNAKNTVYLQMNSLKPEDTAVYYCAARGPLVRYGYWGHGTQVTVSS | high polyreactivity
9 | QVQLVESGGGLVQAGGSLRLSCAASGFIFLGNAKGWYRQATGKERELVAAISSGGSTYADSVKGRFTISRDNAKNTVYLQMNSLKPEDTAVYYCAVDRAFRAQNYHEYDYWGQGTQVTVSS | low polyreactivity
10 | QVQLVESGGGLVQAGGSLRLSCAASGFIFLGNAMGWYRQAPGKERELVAAISSGGSTYADSVKGRFTISRDNAKNTVYLQMNSLKPEDTAVYYCNTEDYTQYEPGYYPPNYYWGQGTQVTVSS | low polyreactivity
11 | QVQLVESGGGLVQAGGSLRLSCAASGFIFLLYDMGWYRQAPGKERELVAAISRSGGSTYYADSVKGRFTISRDNAKNTVYLQMNSLKPEDTAVYYCNAAYRPWRGGYYPVGYYYWGQGTQVTVSS | high polyreactivity
12 | QVQLVESGGGLVQAGGSLRLSCAASGFIFLNNTLGWYRQAPGKERELVAAISWSGGSTYYADSVKGRFTISRDNAKYSVYLQMNSLKPEDTAVYYCAADVKHTTEYDYWGKGTQVTVSS | high polyreactivity
13 | QVQLVESGGGLVQAGGSLRLSCAASGFIFLRYVMGWYRQAPGKERELVAVITGTGVRTYADSVKGRFTISRDNAKNTVYLQMTSLKPEDTAVYYCAVVSSSREVEVLDFDYWGLGTQVTVSS | low polyreactivity
14 | QVQLVESGGGLVQAGGSLRLSCAASGFIFLTNSMGWYRQAPGKERELVAAIRWSDDGTYYADSVKGRFTISRDNAKNTVYLQMNSLKPEDTEVYYCAKEVRNTVTTTGQGTQVTVSS | low polyreactivity
15 | QVQLVESGGGLVQAGGSLRLSCAASGFIFLYNAMGWYRQAPGKERELVATISTGGDTTYADSVKGRFTISRDNAKNTVYLQMNSVKPEDTAVYYCAKLDLSIFRWDTEFGLYDYWGQGTQVTVLS | low polyreactivity
16 | QVQLVESGGGLVQAGGSLRLSCAASGFIFNAYPMGWYRPAPGKERELVAAISSSGGRTYYADSVKGRFTISRDNAKNTVYLHMNSLKPEDTAVYYCNADKNSIIKLRGYYYWGQGTQVTVSS | high polyreactivity
17 | QVQLVESGGGLVQAGGSLRLSCAASGFIFNAYVMGWYRQAPGKERELVAAITASGGSTYYADSVKGRFTISRDNAKNTVYLQMNSLKPEDTAVYYCAAAHPYDSRFDYWGQGTQVTVSS | high polyreactivity
18 | QVQLVESGGGLVQAGGSLRLSCAASGFIFNINTMGWYRQAPGKERELVAAISGSGDSTYYADSVKGRFTISRDNAKNTVYLQMNSLKPEDTAVYYCNAGPWWYLHEYDYWGQGTQVTVSS | low polyreactivity
19 | QVQLVESGGGLVQAGGSLRLSCAASGFIFNKYAMGWYRQAPGKERELVATIRRDGSTNYADSVKGRFTISRDNAKNTVYLQMNSQKPEDTAVYYCAVRPYYWSRDYYWGQGTQVTVSS | high polyreactivity
20 | QVQLVESGGGLVQAGGSLRLSCAASGFIFNLYAMGWYRQAPGKERELVAVISGSGVRTYYADSVKGRFTISRDNAKNTVYLQMNSLKPEDTAVYYCAARTYGGYEYWGQGTQVTVSS | high polyreactivity
21 | QVQLVESGGGLVQAGGSLRLSCAASGFIFNLYAMGWYRQAPGKERELVAVITGSGVRTYYADSVKGRFTISRDNAKNTVYLQMNSLKPEDTAVYYCAARTYGGYEYWGQGTQVTVSS | high polyreactivity
22 | QVQLVESGGGLVQAGGSLRLSCAASGFIFNSYAMGGYRQAPGKERELVAAISRRGSSTYYADSVKGRFTISRDNAKNTVYLQMKSLKPEDTAVYYCAKRDLSTSWYLRDYWGQGTQVTVSS | high polyreactivity

Row | Sequence | polyreactivity (PSR sort gate)
23 | QVQLVESGGGLVQAGGSLRLSCAASGFIFNTMGWYRQAPGKERELVATISWSDGSTYYADSVKGRFTISRDNAKNTVYLQMNSLKPEDTAVYYCAADSRPWGSSMDSWGQGTQVTVSS | low polyreactivity
24 | QVQLVESGGGLVQAGGSLRLSCAASGFIFNTMGWYRQAPGKERELVATMSWSDGSTYYADSVKGRFTISRDNAKNTVYLQMNSLKPEDTAVYYCAATTDALVGRPRYDYWGQGTQVTVSS | low polyreactivity
25 | QVQLVESGGGLVQAGGSLRLSCAASGFIFNTNAMRWYRQAPVKEREFDAAITSSDGNTYYADSVKGRFTISRDNAKNTVYLQMNSLKPEDTAVYYCAADARTKSYVRLYDYWGQGTQVTVSS | low polyreactivity
26 | QVQLVESGGGLVQAGGSLRLSCAASGFIFNYNAMGWYRQAPGKERELVAAIRTSSGSTYYADSVKGRFTISRDNAKNTVYLQMNSLKPEDTAVYYCAKTRYSTYSPIYYYWGQGTQVTVSS | high polyreactivity
27 | QVQLVESGGGLVQAGGSLRLSCAASGFIFNYYDMGWYRQAPGKERELVAAITYSVGSTYYADSVKGRFTISRDNAKNTVYLQMNSLKPEDTAVYYCNKDFLYGIYSYDYWGQGTQVTVSS | high polyreactivity
28 | QVQLVESGGGLVQAGGSLRLSCAASGFIFPAYAMGWYRQAPGKEMALVAAITSGGSTNYADSVKGRFTISRDNAKNTVYLQMNSLKPEDTAVYYCAADFDSILSVRSYRSRWYDYWGQGTQVAVSS | low polyreactivity
29 | QVQLVESGGGLVQAGGSLRLSCAASGFIFPDNAMGWYRQAPGKERELVATITSGGNTYYADSVKGRFTISRDNAKNTVYIQMNSLKPEDTAVYYSAAEWDYYDYDWYIAWTIDYWGQGTQVTVSS | low polyreactivity
30 | QVQLVESGGGLVQAGGSLRLSCAASGFIFPDYGMGSYRQAPGKERELVAAIYRNGVSTYYADSVKGRFTISRDNAKNTVYLQMKSLKPEDTAVYYCAARFYRIRRVSKSGYYWGLGTQVTVSS | low polyreactivity
31 | QVQLVESGGGLVQAGGSLRLSCAASGFIFPGYAMGWYRQAPGKEREFVAVISRSGVRTYYADSVKGRFTISRDNAKNTVYLQMNSLKPEDTAVYYCAARYYSTDLEYWGQGTQVTVSS | low polyreactivity
32 | QVQLVESGGGLVQAGGSLRLSCAASGFIFPLYTMGWYRQAPGKERELVAAISWIGGRTYYADSVKGRFTISRDNAKNTVYLQMNSLKPEDSAVYYCAKDPTGGGYGYDYWGQGTQVTVSS | low polyreactivity
33 | QVQLVESGGGLVQAGGSLRLSCAASGFIFPNKAMGWYRQAPGKERELVARISYGGGDTHYADSVKGRFTISRDNAKNTVYLQMNSLKPEDTAVYYCSYYYWGQGTQVTVSS | low polyreactivity
34 | QVQLVESGGGLVQAGGSLRLSCAASGFIFPRYFMGLYRQAPGKERELVAAINSDISTNYADSVKWRFTISRDNAKNTVYLQMNSLKPEDTAVYYCAADRWDDPWEFDYWGQCTQVTVSS | low polyreactivity
35 | QVQLVESGGGLVQAGGSLRLSCAASGFIFPWNAMAWYRQAPRKERELVAAISFSGGSTYYADSVKGRFTISRDNAKNTVYLQMNSLKPEDTAVYYCAKRTWDLRRTRHYYWGQGTQVTVSS | low polyreactivity
36 | QVQLVESGGGLVQAGGSLRLSCAASGFIFPYNTMGWYRQATAKERELVAAIRYSAGRTYYADSVKGRFTISRDNAKNTVYLQMNSLKPEDTEVYYCNGVSSGDMDYWGQGTQVTVSS | high polyreactivity
37 | QVQLVESGGGLVQAGGSLRLSCAASGFIFPYYAMGWYRQAPGKERELVAAISGSGGSTYYADSVKGRFTISRDNANYTVYLQMNSLKPEDTAVYYCAASARRLNMGYWGQGTQVTVSS | high polyreactivity
38 | QVQLVESGGGLVQAGGSLRLSCAASGFIFQGNAKGWYRQAPGKERELVAAITRGGGRTYYADSVKGRFTISRDNSKNTVYLQMNSLKPEDSAVNYCNAVGRSKYDYWGQGTQVTVSW | high polyreactivity
39 | QVQLVESGGGLVQAGGSLRLSCAASGFIFQIYAMGWYRQAPGKERELVAAISSGGSTNYADSVKGRFTISRDNAKNTVYVQMNSMKPEDTAVYYCAAATHYWYFYSFKDKSGFRGYYWGQGTQVTVSS | high polyreactivity
40 | QVQLVESGGGLVQAGGSLRLSCAASGFIFQIYPMGWYRQAPGKERELVAAISSGGSTNYADSVKGRFTISRDNAKNTVYLQMNSLKPEDTAVYYCAAATHYWYFYSFKDKSGFRGYYWGQGTQVTVSS | high polyreactivity
41 | QVQLVESGGGLVQAGGSLRLSCAASGFIFQRYAMGWYRQAPGKERELVAAISSGGGTNYADSVKGRFTISRDNAKNTVYLQMNSLKPEDTAVYYCARPYYVYSQSSDYWGQGTQVTVSS | low polyreactivity
42 | QVQLVESGGGLVQAGGSLRLSCAASGFIFQRYAMGWYRQAPGKERELVAAISSSGGRTSYADSVKGRFTISRDNAKNTVYLQMNSLKPEDTAVYYCAAYPQGRWYVVWSGDYWGQGTQVTVSS | high polyreactivity
43 | QVQLVESGGGLVQAGGSLRLSCAASGFIFQTNVMGWYRQAPGKERELVAAISSGDSTYYADSVKGRFTISRDNAKNTVYLQLNSLKPEDTAVYYCAADVLGTTTTVGGFNYWGQGTQVTVSS | low polyreactivity
